We go through one molecule from article doi:10.1101/2023.11.20.565808 (bioRxiv, 2023).

In this experiment the target is GST-fused RACK1, WT (human, UniProt P63244 1-317). Put plainly: pull-down.

B1: His6-YTHDF2, WT (FL) (natural protein)
chain: MSASSLLEQRPKGQGNKVQNGSVHQKDGLNDDDFEPYLSPQARPNNAYTAMSDSYLPSYYSPSIGFSYSLGEAAWSTGGDTAMPYLTSYGQLSNGEPHFLPDAMFGQPGALGSTPFLGQHGFNFFPSGIDFSAWGNNSSQGQSTQSSGYSSNYAYAPSSLGGAMIDGQSAFANETLNKAPGMNTIDQGMAALKLGSTEVASNVPKVVGSAVGSGSITSNIVASNSLPPATIAPPKPASWADIASKPAKQQPKLKTKNGIAGSSLPPPPIKHNMDIGTWDNKGPVAKAPSQALVQNIGQPTQGSPQPVGQQANNSPPVAQASVGQQTQPLPPPPPQPAQLSVQQQAAQPTRWVAPRNRGSGFGHNGVDGNGVGQSQAGSGSTPSEPHPVLEKLRSINNYNPKDFDWNLKHGRVFIIKSYSEDDIHRSIKYNIWCSTEHGNKRLDAAYRSMNGKGPVYLLFSVNGSGHFCGVAEMKSAVDYNTCAGVWSQDKWKGRFDVRWIFVKDVPNSQLRHIRLENNENKPVTNSRDTQEVPLEKAKQVLKIIASYKHTTSIFDDFSHYEKRQEEEESVKKERQGRGK
With B1, the binding result is listed as “binds”.
